The target of assay [1] is GDP-tubulin (biotinylated α/β-tubulin heterodimer with GDP-bound β-tubulin) (UniProt Q71U36).
Assay [2] has the same target. The assay is described as follows: pull-down; supernatant depletion at equilibrium, same assay as for GTP-tubulin but with bead-bound GDP-tubulin; BuGZ construct (or mEGFP control) in solution; fit with Equation S2 for wild-type BuGZ.
In assay [3] the target is GTP-tubulin (biotinylated α/β-tubulin heterodimer with GTP-bound β-tubulin) (UniProt Q71U36). Nature of the assay: pull-down; supernatant depletion at equilibrium; varying concentrations of biotinylated GTP-tubulin on streptavidin-coated magnetic beads; BuGZ construct (or mEGFP control) in solution, BuGZ 1.19 μM; 4 °C; nocodazole present; depletion from the supernatant measured by immunoblotting.

Substance “BuGZ-ΔGLEBS (from UniProt Q7ZXV8 1-452) (natural protein)” gave a GTP α-32P incorporation into GDP-tubulin at equilibrium, increase relative to controls in assay [1] of 57.4%. The results for the Kd in assay [2] and in assay [3] were 54.2 nM and 408 nM, respectively.

What is called Kd is a measure of binding affinity in units of concentration. Read a low Kd as tighter binding.

Source of the values: paper PMC12302650.
